Entries after “also recorded” stand apart in the source; their conditions may differ.
B1: MM02: mouse monoclonal antibody against SEMG2(497-509), mIgG2b kappa, VH SEQ ID NO:35, VL SEQ ID NO:42 (antibody, V domains shown)
VH: QIQLVQSGPEVKKPGETVRISCKASGYTLTTAGIQWVQKMPGKGLKWIGWINTHSGVPEYAEDFKGRFAFFLETSASTAYLQISNLKNEDTATYFCARLGLLGYWGQGTTLTVSS
VL: DILLTQSPAILSVSPGERVSFSCRASQSIGTTIHWYQQRTNGSPRLLIKYASESISGIPSRFSGSGSGTDFTLSINSVESEDIADYYCQQSNSWPWTFGGGTKLEIKRA
modifications: UNSURE (1)..(115) VH; UNSURE (1)..(109) VL
B2: MM05: mouse monoclonal antibody against SEMG2(497-509), mIgG1 kappa, VH SEQ ID NO:36, VL SEQ ID NO:43 (antibody, V domains shown)
VH: QVQLQQPGAELVRPGASVKLSCEASGYTFTSYWMNWVKQRPGQGLEWIGMIDPSDSETHYNQMFKDKATLTVDKSSSTAYMQLSSLTSEDSAVYYCARYLGGKEGSFDYWGQGTTLTVSS
VL: DIVMSQSPSSLAVSAGEKVTMSCKSSQSLLNSRTRKNYLAWYQQKPGQSPKLLIYWASTRESGVPDRFTGSGSGTDFTLTISSVQAEDLAVYYCKQSYSLPWTFGGGTKLEIKRA
modifications: UNSURE (1)..(120) VH; UNSURE (1)..(115) VL

Tests used:
SEMG2(497-509) fragment = molecular target: T1, SEMG2(497-509) fragment (Homo sapiens, UniProt Q02383); test: ELISA binding of antibodies to SEMG2(497-509) epitope
T1 construct: SEMG2(497-509) fragment and SEMG2(563-574) fragment were immobilized on the ELISA plate; made in house; host or cells: chemical synthesis
Protocol: Specifically, SEMG2 full-length protein (1-582), SEMG2(354-403) fragment, SEMG2(442-453) fragment, SEMG2(497-509) fragment and SEMG2(563-574) fragment were immobilized on the ELISA plate, and the same concentration of antibodies (MM02, MM05, MM07, MM08, MM13, MM14, HPA042767 and HPA042835) were added. Anti-mouse or anti-rabbit secondary antibodies were then used to detect the corresponding bound antibodies. MM02, MM05, MM07, MM08, MM13, and MM14 all bound to SEMG2(497509) epitope, HPA042767 bound to SEMG2 (354-403) epitope, and HPA042835 bound to […], while none of the antibodies bound to SEMG2 (442-453) control fragment.
Specifically, the preparation of polypeptide antigens and the screening of human natural antibody library were firstly performed. The SEMG2(497-509) polypeptide was synthesized and coupled to BSA and KLH, respectively, and screened in a fully human phage display antibody library. ELISA was used to select clones that bind to antigenic epitopes for preliminary screening. Different unique sequences were obtained after sequencing single colonies, sorted according to affinity sorting, and full-length antibodies were constructed from antigen-binding fragments (Fab) with relatively high affinity. The binding ability and blocking function tests were performed after purification, that is, the effect of the antibody on binding between SEMG2 and CD27 was determined by the ELISA experiment.

[1] = tested on: SEMG2(497-509) polypeptide and glycine mutation scanning sequence group; test: ELISA epitope mapping with glycine mutation scanning sequence group; format: binding, human
From the text: To further precisely define the exact epitopes (specific to the level of single amino acid) to which blocking antibodies MM02, MM05, MM07, MM08, MM13, MM14 bind, corresponding ELISA analysis method was established. […] Anti-mouse or anti-rabbit secondary antibodies were then used to detect the corresponding bound antibodies. […] Meanwhile, the different amino acids in the SEMG2(497-509) sequence had different degrees of influence on the binding of similar blocking antibodies (MM02, MM05, MM07, MM08, MM13, MM14) after substitution by glycine. […] The results precisely define the epitope amino acids associated with MM02 and similar antibodies (i.e., antibodies that block the binding between SEMG2 and CD27), and the contribution of each amino acid to the binding.

DLD1 cells = test: Tumor cell killing by activated PBMC; format: cell-based, human; settings: DLD1, SEMG2-negative
Protocol: (§1) To test the above hypothesis, the effects of different epitope-specific antibodies on tumor cell killing by activated PBMC were compared. Specifically, A375 human melanoma and LOVO human colorectal cancer cells highly expressing SEMG2 were seeded in 96-well plate. Human peripheral blood mononuclear cells (PBMC; #70025, Stem Cell) were activated with 100 ng/mL of CD3 antibody, 100 ng/mL, of CD28 antibody, and 1.0 ng/mL of IL2 (#317303; #302913; #589102, BioLegend), respectively, and co-cultured with the above tumor cells at a ratio of 10:1 in presence of fluorescent caspase-3/7 substrate (#4440, Essen Bioscience). After 1.0 hours, cells were observed under fluorescence microscope.
(§2) To verify the above hypothesis, tumor cells with high SEMG2 expression (A375, LOVO) and SEMG2-negative tumor cells (DLD1, NCM460 and NCI-H1975) were selected. Different antibodies (irrelevant mouse IgG antibodies, MM02 or MM05 antibodies) were added during the PBMC killing experiments for the tumor cells.

NCI-H1975 cells = test: Tumor cell killing by activated PBMC; format: cell-based, human; settings: NCI-H1975, SEMG2-negative
Protocol: as §1, §2

NCM460 cells = test: Tumor cell killing by activated PBMC; format: cell-based, human; settings: NCM460, SEMG2-negative
Protocol: as §1, §2

[2] = tested on: human malignant melanoma A375 cells; test: Xenograft model of PBMC-HIS model in human malignant melanoma A375 cells; format: in vivo, mouse; settings: NPSG mice with PBMC and A375, 5 mg/kg intraperitoneally three times a week
Protocol: 30 male NPSG mouse models aged 6-8 week were weighed. A375 cells (with confirmed endogenous expression of SEMG2) were cultured in vitro to obtain 1.8×10^8 cells. After 30 mice were inoculated with PBMC, A375 tumor cells were inoculated on the 3rd day. After that, the proportion of hCD45+ cells in mouse blood and the body weight were measured once a week. After inoculation, tumor volume was measured once a week, and the proportion of hCD45+ cells in mouse blood was measured when the average tumor volume reached about 40-80 mm^3. Mice were grouped randomly based on tumor volume and the proportion of hCD45+ cells in mouse blood, and the administration was started immediately. The date began the administration was considered day 0. […] After the tumor growth, the body weight and tumor volume were measured 3 times a week, and the relative count of hCD45+ cells in mouse blood was monitored by flow cytometry 3 times a week. When the tumor volume reached the end point, blood was collected and the same indexed were detected, and the experiment was ended. […] Measurement of tumor volume: after inoculation and before grouping, when tumors were visible, the tumor volume of experimental animals was measured once a week. After inoculation and grouping, the tumor volume of animals in the experiment was measured twice a week. The tumor volume was measured by a bidirectional measurement method. […]

| Molecule | binding to SEMG2(497-509) epitope (SEMG2(497-509) fragment) | decrease of antibody binding after glycine substitution ([1]; substitution of amino acids at positions 501 and 506) | effect of glycine substitution on antibody binding ([1]; substitution of amino acids at positions 507 and 509) | killing by activated PBMC (DLD1 cells) | killing by activated PBMC (NCI-H1975 cells) | killing by activated PBMC (NCM460 cells) | growth of tumor in mice [2] |
| --- | --- | --- | --- | --- | --- | --- | --- |
| B1 | able to hind to SEMG2(497-509); also recorded: bound | more than 70% | did not significantly affect | no obvious impact | no obvious impact | no obvious impact |  |
| B2 | able to hind to SEMG2(497-509); also recorded: bound |  |  | no obvious impact | no obvious impact | no obvious impact | significantly inhibited the growth of tumor |
